Source: the nanobody polyreactivity screen of Harvey et al. (2022)

Assay: yeast display, Sf9 membrane polyspecificity reagent, FACS + sequencing; frameworks hold sequencing errors
Procedure, shortened: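 Galactose induction of a Saccharomyces cerevisiae BJ5465 synthetic nanobody display library ran 36–48 hours. The cells were then stained for 1 hour at 4 °C with 10% biotinylated, detergent-solubilized Sf9 membrane reagent, pulled down on streptavidin microbeads and FACS-sorted into low and high (top ~1%) gates on expression and reagent-binding fluorescence. Labels for polyreactivity follow the gate of origin.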

Row | Sequence | polyreactivity (PSR sort gate)
1 | QVQLVESGGGLVQAGGSLRLSCAASGGIFSKNVMGWYRQAPGKERELVAAISRGGTTSYADSVKGRFTISRDNAKNTVYLQMNSLKPEDTAVYFCAAKYWWYPYFTVDYDYWGQGTQVTVSS | high polyreactivity
2 | QVQLVESGGGLVQAGGSLRLSCAASGRTFYYNTMGWYRQAPGKERELVATISRIGGSTYYADSVKGRFTISRDNAKNTVYLQMNSLKPEDTAVYYCAAYVAAYPTGYDYWGQGTQVTVSS | high polyreactivity
3 | QVQLVESGGGLVQAGGSLRLSCAASGSIFVGNAMGWYRQAPGKERELFAAISSSGGSTYYADSVKGRFTISRDKAKNTFYLQMNILKPEDTAVYYCASDTYSTSGFYYWGQGTQVTVSS | low polyreactivity
4 | QVQLVESGGGLVQAGGSLRLSCAASGFTFSYNTMGWYREAPGKERELVAAISRSGGRTFYADSVKGRFTISRDNAKNTVYLQMNSLKPEDTAVYYCARPWFDYWGQGTQVTVSS | high polyreactivity
5 | QVQLVESVGGLVQAGGSLRLSCAASGSTFYPNAMGLYRQAPGKESELVAAITSGGSTYYADSVKGRFTISRDNAKNTVYLQMNTLKPEDTAVYYCAAQRRYHLDTTIGPGNYYYWGQGTQVTVSS | low polyreactivity
6 | QVQLVESGGGLVQAGGSLRLSCAASGFTFGTYAMGCYRPAPGKERELVAAISKRGGSTYYADSVKGRFTISRDNAKNTVYLQMNSLKPEDTAVYYCAATRPYSHRDYFYWGQGTQVSVSS | high polyreactivity
7 | QVQLVESGGGLVQAGGSLRLSCAASGRIFRSNVMGWYRQAPGKERELVAAITGRGSSTYYADSVKGRFTISRDNAKNTVYLQMNSLKPEDTAVYYCAKASRYWSLYYWGQGTQVTVSS | high polyreactivity
8 | QVQLVESGGGLVQAGGSLRLSCAASGSTFTYYAMGWYRQAPGKERELVAAISRSGGNTYYADSVKGRFTISRDNAKNTVYLQMNSLKKEDTAVYYCAAYRQVYGFDYWGQGTQVTVSS | high polyreactivity
9 | QVQLVESGGGLVQAGGSLRLSCAASGITSWYYAMGWYRQAPGKERELVAAITSDGRTNYADSVKGRFTISRDNAKNTVYLQMNSLKPEDTAVYYCAAARRVGVSHYRYGYWGQGTQVTVSS | high polyreactivity
10 | QLQREESGGGLVQAGGSLRLSCAASGSTFEKNAMGWYRQAPAKERELVAALSNGVSTYDADSVKGRFPISRDNAKNSVYLLMNSLKPEDTAVYYCAADLFFGAETVYYAKFDYWGQGTQVTVSS | low polyreactivity
11 | QVQLVESGGRLVQAGGSLRLSCAASGGTLTSNPMGWYRPAPGKERELVAAINKSGGSTYYADSVKGRFTISRDNAKNTVYLQMNSLKPEDTAVYYCAARFYYWVSGGLVKYNYWGQGTQVTVSS | high polyreactivity
12 | QVQLVESGGALVQAGGSLRLSCAASGRTINYYAMGWYRQAPGKERELVAAITWSGSSTYYADSVKGRFTISRDNAKYTVYLQMNSLKPEDTAVYYCNKASYTGYRSKRFYYWGQGTQVTVSS | high polyreactivity
13 | QVQLVESGGGLVQAGGSLRLSCAASGFTFYRNAMGWYRQAPGKERELVAAITRAGSTYYADSVKGRFTISRDNAKNTVYLQMNSLKPEDTAVYYCFDMSNRYAVRYDYWGQGTQVSVSS | high polyreactivity
14 | QVQLVESVGGLVQAGGRLRLSCAASGSIFSIYGMGWYRQAPGKERELVAVISKSGTRTFYADSVKGRFTISRDNAKNTVYLQMNSLKPEDTAVYYCNARIFFRRNVTQVRMDYWGQGTQVTVSS | high polyreactivity
15 | QVQLVESGGGLVQAGGSLRLSCAASGSTYVSNAMGWYRQAPGKERELVAAISTGGGTCYADSVKGRFTISRDNAKNTVYLQMNSLKPEDTAVYYCNAVYVWWDGWGLYYWGQGTQVTVSS | low polyreactivity
16 | QVQLVESGGGLVQAGGSLPLSCAASGRIFRRNAKGWYRPAPGKEREMVAAIRYGGGTTYAHSVKGRFTISRDNAKNTVYLQMNSLKPEDTAVYYCAVGPRASFGYGYWGQGTQVTVSS | high polyreactivity
17 | QVQLVESGGGLVQAGGSLRLSCAASGRIFRFYAMGWYRQAPRKERELVATIRRGDSTSYADSVKGRFTISRDNAKNTVYLQMNSLKPEDTAVYYCAAVWPSHVGTTYFWHKYGYWGQGTQVTVSS | high polyreactivity
18 | QVQLVESGGGLVQAGGSLRLSCAASGITIFGYAMGWYRQAPRTERELVAAINYSGDSTYYADSVKGRFTISRDNAKNTVYLQMNSLKPEDTAVYYCAADVRPYYSAYRGRYYYWGQGTQVTVSS | high polyreactivity
19 | QVLLVEAGRGLVQAGGSLRLSCAASGSIVVGYAMGCYRQAPGKERELVATISYSGDSTYYADSVKGRFTISRDNAKNTVYLQMNSLNPEDSAVYYCATESNGSPYKGDYWGQGTQVTVSS | low polyreactivity
20 | QVQLVESGGRLVQAGGSLRFTCAASGSIFYSYAMGWYRQAPGKERELLAAINYSGSSTYYADSVKGRFTISRDNAKNTVYLQMNSLKPEDTAVYYCAAVIHSQYVDYYYWGQGTQVTVSS | high polyreactivity
21 | QVQLVESGGGLVQAGGSLRLSCAASGSTFTAYAMGWYRQAPGKERQLVAAISKRSGVTYYADSVKGRFTISRDNAKNTVYLQINSLKPEDTAVYYCGQGTQVTVSS | low polyreactivity
22 | QVQLVESGGGLVQAGGSLRLSCAASGRIFHPNVMGWYRQAPGKERELVAAISSGGSTYYADSVKGRFTISRDNAKNTVYLQMNSLKPEDTAVYYCATRIRSGSYPYPRYDYWGQGTQVTVSS | high polyreactivity

Row | Sequence | polyreactivity (PSR sort gate)
23 | QVQLVESGGGLVQAGGSLRLSCAASGRIFYRNAMGWYRQAPAKERELVAAISWSGGRTYYADSVKGRFTISRDNAKNTVYLQMNSLKPEDTAVYYCNARTGYYTGQYDYWGQGTQVTVSS | high polyreactivity
24 | QDQLVESGGGLVQAGGSLRLSCAASGRTFGVNAMGWYRQAPGKERELVASIRWNGGSTYYADSVKGRFTISRDNAKNTVYFQMNSLKPEDTAVYYCNAVRRYRSREFDYWGQGTQVNVSS | low polyreactivity
25 | QVQLVESGGGLVQAAGSLRLSCAASGSTFYRNAMGWYRQAPGKERELVASINNGGSTYYADSVKGRFTISRDNAKNTVYLQMNSLKPEDTAVYYCAATESWDYDYWGQGTQVTVSS | low polyreactivity
26 | QVQLVESGGGLVQAGGSLRLSCAASGFINSDYAMGWYRPAPGKERELVAVITWRSGSTYYADSVKGRFTISRDYAKNTVYLQMNSLKPEDTAVYYCAARNYRNYSQGRRLGYNDWGQGTQVTVTS | high polyreactivity
27 | QVQLVESWGGLVQAGASLRLSSAASGSIFGSYAMGSYRQAPGKERQLVAAITGIGGSTYYADSVKGRFTITRDNAKNTVYLQLNSLKPEDTAVYYCATRVRYRAPVVRGNYWGQGTQVTVSS | high polyreactivity
28 | QVQLQESGGGLVQAGGSLRLSCAASGSISRLDYMGWYRQASGKERELVAAIDNGSTTYYADSVKGRLTISRDNAKYTVYLQMNSLKPADTAVYFCAAVRGRGGTHAYWGQGTQVTVSG | low polyreactivity
29 | QVQLVESGGGLVQAGGSLRLSCAASGFTFPSYPMGWYRQAPGKETELVAVISWGGTSTYYADSVKGRFTISRDNAKNTVYLQMNSLKPEDTAVYYCNRPSRYASTSRGYGYWGQGTQVTVSS | high polyreactivity
30 | QVQLVESGGGLVQAGGSLRLSCAASGSTFIYYAMVWYRQAPGKERELVASLSRSGGSTYYADSVKGRFTISRDNAKNTVYLQMNSLKPEDTAVYYCARAYRSSFNYWGQGTQVTVSS | high polyreactivity
31 | QFQLVESGGGLVQAGGSLRLSCAASGLIFVYNDMGWYRQAPGKETELVAGITGTGGNTYYADSVKGRFTISRDNEKNTVYLQMNSLKPEDTAVYYCAASHTSYYLRYGYWGQGTQVTVSS | high polyreactivity
32 | QVQLVESGGGLFQAGGSLRISCAASGSTFLVNAMGWYRQAPGKEREFVAAITWTGGSTYYADSVKGRFTISRDNAKNSVYLQMNRLKPEDTAVYYCNTDWTYYGDQYRRGGYWGQGTQVTVSS | low polyreactivity
33 | QVQLVESGGGLGQAGGSLRLSCAASGIIFLDNAMGWYRQAPGKERELVAAYADSVKGRFTISRDNSNNTVYLQMNSLKPEDTAVYYCNVVLYKYSPTDSWITYDYWGQGTQVTVSS | low polyreactivity
34 | QVQLVESGGGIVQAGGSLRLSCAASGFTFQFYAMGWYRQAPGKEREFVAAISGSGGSTYYADSVKGRFTISRDNAKNTVYLQMNSLKPEDTAVYYCAAEVPGKPYRRSRYSFRHDYWGQGTQVTVSS | low polyreactivity
35 | QVQLVESGGGLVQAGGSLRLSCAASGRIFGVNAMGWYRQAPGKERELVAAISRSGGSTYYADSVKGRFTISRDNAKNTVYLQMNSLKPEDTAVYYCAAVVKYRYSAYGGDYWRQGTQVTVSS | high polyreactivity
36 | QVQLVESGGGLVQEGGSLRLSCAASGRTICLNDMGWYRQAPGKERELVAGITRSGGSTYYADSVKGRFTISRDNAKNTVYLQMNSLKPEDSAVYYCAADFKPLYYDEYDYWGQGTQVTVSS | low polyreactivity
37 | QVQLVESGGGLVQAGGSLRLSCAASGFIFKRYAMGWYRQAPGKERELVAAISTYSGGRTYYADSVKGRFTISRDNAKNSVYLQMNSLKPEDTAVYYCNARKYVGFWSRYDYWGQGTQVTVSS | high polyreactivity
38 | QVQLVESGGGLVQAGGSLRLSCAASGLTLSGNAMGWYRQAPGKETELVAAITGRGGSTTYADSVKGRFTISRDNAKTTVYLQMNSLKPEDTAVYYCAADHAWYSLFDYWGQGTQVTVSS | low polyreactivity
39 | QVQLVESGGGLVQAGGSLRLSCAASRRIFSQYAMGWSRQAPGKERELVAAITWRGASTYYADSVKGRFTISRDNAKNTVYLQMNSLKPEDTAVYYCAAGYPPGRYYRVRWVGYWGQGTQVTVSS | high polyreactivity
40 | QVQLVESAGGLVQAGGSLRLSCAASGITLSYNAMGWYRQAPGKERELVAAISARGGSTYYADSVKGRFTISRDPAKNTVYLQMYSLKPEDTAVYYCAAPRGWRQNKYDYWGQVTQVTVSS | high polyreactivity
41 | QVQLVESGGGLVQAGGSLRLSCAASGFTFHSYAMGWYRQAPGKDRELVAAISRGGGNTYYADSVKGRFTISRDNAKNTVYLQMNSLKPEDTAVYYCAADAIYNFEMDYWGQGTQVTVSS | high polyreactivity
42 | QVQLVETGGGLVQAGGSLRLSCPASGRTFAKYAMGRYRQAPGKERELVAAISDSGGSTYYEDSVKGRFTISRDNAKNTVYLQMNSLKPEDTAVYYCAADGRYTYYWGQGTQVTVSS | high polyreactivity
43 | QVQLVESGGGLVQAGGSLRLSCAASGSIFTWNAMGWYRQAPGKERELVAAISWIGDSTYYADSVKGRFTISRDNAKNTVYLQMNSLKPEDTAVYYCAAEYAQGSRELESWGQGTQVTVSS | low polyreactivity
